Reference: patent publication KR20220012792A (dated 2022)
Like-named read-outs stand apart in the source and are kept apart here.

Tests used:
Assay in all cases: cell-based or functional assay
[1] = biological target: S 단백질 of SARS-CoV-2 hCoV-19/Korea/KCDC31/2020 (V형) (SARS-CoV-2)
[2] = biological target: S 단백질 of SARS-CoV-2 hCoV-19/South Korea/KNIH04/2020 (L형) (SARS-CoV-2)
[3] = biological target: T1, S 단백질 of SARS-CoV-2 BetaCoV/Korea/KCDC03/2020 (614D, S형) (SARS-CoV-2)
[4] = biological target: T1, S 단백질 of SARS-CoV-2 …; remark: listed apart in the source
[5] = biological target: T1, S 단백질 of SARS-CoV-2 …; remark: listed apart in the source

B1: No. 139 항체 (Full IgG) (antibody, V domains shown)
VH: QITLKESGPTLVKPTQTLTLTCSFSGFSLSTSGVGVGWIRQPPGKALEWLALIDWDDNKYHTTSLKTRLTISKDTSKNQVVLTMTNMDPVDTATYYCARIPGFLRYRNRYYYYGMDVWGQGTTVTVSS
VL: ELVLTQPPSVSAAPGQKVTISCSGSSSNIGNNYVSWYQQLPGTAPKLLIYDNNKRPSGIPDRFSGSKSGTSATLGITGLQTGDEADYYCGTWDSSLSAGVFGGGTELTVL
- IC50 (ng/ml), PRNT [1]: 8 ng/mL
- IC50 (ng/ml), PRNT [2]: 4.79 ng/mL
- IC50 (ng/ml), PRNT [3]: 6.76 ng/mL
- IC50 (ng/ml), PRNT [4]: 29.8 ng/mL
- IC50 (ng/ml), PRNT [5]: 4.1 ng/mL
- IC50, PRNT [5]: 8.37 ng/mL
